How the values were obtained:
[1] = target: Rhinovirus C15 (RV-C15) virus particles (rhinovirus C15); assay: ELISA
[2] = target: Rhinovirus C15 (RV-C15) virus particles (rhinovirus C15); assay: ELISA; RV-C15 coated on the plate; native SP-A or recombinant SP-A variants at a single concentration of 10 µg/mL, with 5 mM CaCl2; A490 nm
[3] = target: Rhinovirus C15 (RV-C15) virus particles (rhinovirus C15)

## Native surfactant protein A (SP-A) (from UniProt Q8IWL2 21-248; Q8IWL1 21-248) (complex)
[1]
  A490nm at 10 µg/mL: 2.01 A490nm

## Recombinant SP-A2 [A91, K223] (from UniProt Q8IWL1 21-248) (natural protein)
[2]
  A490nm at 10 µg/mL: 1.19 A490nm
[3]
  RV-C15-GFP viral copy numbers in NECs at 48 h with rSP-A2 [A91, K223] at 400 µg/mL, percent of RV-C15-GFP infection control (% of RV-C15-GFP infection control): 40.2

## Recombinant SP-A2 [A91, Q223] (from UniProt Q8IWL1 21-248) (natural protein)
[2]
  A490nm at 10 µg/mL: 0.19 A490nm
[3]
  RV-C15-GFP viral copy numbers in NECs at 48 h with rSP-A2 [A91, Q223] at 400 µg/mL, percent of RV-C15-GFP infection control (% of RV-C15-GFP infection control): 54.8

## Recombinant SP-A2 [P91, K223] (from UniProt Q8IWL1 21-248) (natural protein)
[2]
  A490nm at 10 µg/mL: 1.67 A490nm

## Recombinant SP-A2 [P91, Q223] (from UniProt Q8IWL1 21-248) (natural protein)
[1]
  A490nm at 10 µg/mL: 1.61 A490nm
